Experimental data from the RNAGym collection of RNA variant scans (doi:10.7554/elife.80360).

B1: CPEB3 Ribozyme (parent)
chain: GGGGGCCACAGCAGAAGCGUUCACGUCGCGGCCCCUGUCAGAUUCUGGUGAAUCUGCGAAUUCUGCUGU

Variants of: B1
Assay: self-cleavage, relative activity (ratio to wild type); higher = more cleavage; co-transcriptional
GGGGGCCACAGCAGAAGCGUUCACAUCGCGGCCCCUGUCAGAUUCUGGUGAAUCUGCGAAUUCUGCUGC [G25A U69C] showed a self-cleavage of 0.36.
GGGGGCCACAGCAGAAGCGUUCACAUCGCGGCCCCUGUCAGAUUCUGGUGAAUCUGCGAAUUCUGCUGA [G25A U69A] showed a self-cleavage of 0.295.
Variant GGGGGCCACAGCAGAAGCGUUCACCUCGCGGCCCCUGUCAGAUUGUGGUGAAUCUGCGAAUUCUGCUGU [G25C C45G] has a self-cleavage of 0.147.
GGGGGCCACAGCAGAAGCGUUCACCUCGCGGCCCCUGUCAGAUUUUGGUGAAUCUGCGAAUUCUGCUGU [G25C C45U] showed a self-cleavage of 0.141.
With GGGGGCCACAGCAGAAGCGUUCACCUCGCGGCCCCUGUCUGAUUCUGGUGAAUCUGCGAAUUCUGCUGU [G25C A40U] the self-cleavage was 0.176.
Work on GGGGGCCACAGCAGAAGCGUUCACCUCGCGGCCCCUGUCGGAUUCUGGUGAAUCUGCGAAUUCUGCUGU [G25C A40G] yielded a self-cleavage of 0.158.
Variant GGGGGCCACAGCAGAAGCGUUCACCUCGCGGCCCCUGUCCGAUUCUGGUGAAUCUGCGAAUUCUGCUGU [G25C A40C] has a self-cleavage of 0.173.
Work on GGGGGCCACAGCAGAAGCGUUCACCUCGCGGCCCCUGUCAGAUUCUGGUGAAUCUGCGCAUUCUGCUGU [G25C A59C] yielded a self-cleavage of 0.193.
GGGGGCCACAGCAGAAGCGUUCACCUCGCGGCCCCUGUCAGAUUCUGGUGAAUCUGCGUAUUCUGCUGU [G25C A59U] gave a self-cleavage of 0.176.
GGGGGCCACAGCAGAAGCGUUCACCUCGCGGCCCCUGUCAGAUUCUGGUGAAUCUGCGGAUUCUGCUGU [G25C A59G] gave a self-cleavage of 0.169.
Variant GGGGGCCACAGCAGAAGCGUUCACCUCGCGGCACCUGUCAGAUUCUGGUGAAUCUGCGAAUUCUGCUGU [G25C C33A] has a self-cleavage of 0.307.
GGGGGCCACAGCAGAAGCGUUCACCUCGCGGCUCCUGUCAGAUUCUGGUGAAUCUGCGAAUUCUGCUGU [G25C C33U] showed a self-cleavage of 0.258.
Variant GGGGGCCACAGCAGAAGCGUUCACCUCGCGGACCCUGUCAGAUUCUGGUGAAUCUGCGAAUUCUGCUGU [G25C C32A] has a self-cleavage of 0.147.
In the case of GGGGGCCACAGCAGAAGCGUUCACCUCGCGGGCCCUGUCAGAUUCUGGUGAAUCUGCGAAUUCUGCUGU [G25C C32G], the self-cleavage is reported as 0.173.
For GGGGGCCACAGCAGAAGCGUUCACCUCGCGGCCCCUGUCAGAUUCUGGUGAAUCUGCGAAUUCUGCUGU [G25C], the self-cleavage was 0.17.
Variant GGGGGCCACAGCAGAAGCGUUCACCUCGCGGCCCCUGUCAGAUUCUGGUGCAUCUGCGAAUUCUGCUGU [G25C A51C] has a self-cleavage of 0.227.
GGGGGCCACAGCAGAAGCGUUCACCUCGCGGCCCCUGUCAGAUUCUGGUGGAUCUGCGAAUUCUGCUGU [G25C A51G] gave a self-cleavage of 0.203.
With GGGGGCCACAGCAGAAGCGUUCACCUCGCGGCCCCUGUCAGAUUCUGGUGAAUUUGCGAAUUCUGCUGU [G25C C54U] the self-cleavage was 0.133.
For GGGGGCCACAGCAGAAGCGUUCACCUCGCGGCCCCUGUCAGAUUCUGGUGAAUGUGCGAAUUCUGCUGU [G25C C54G], the self-cleavage was 0.162.
GGGGGCCACAGCAGAAGCGUUCACCUCGCGGCCCCUGUCAGAUUCUGGUGAAUAUGCGAAUUCUGCUGU [G25C C54A] showed a self-cleavage of 0.136.
GGGGGCCACAGCAGAAGCGUUCACCUCGUGGCCCCUGUCAGAUUCUGGUGAAUCUGCGAAUUCUGCUGU [G25C C29U] gave a self-cleavage of 0.126.
With GGGGGCCACAGCAGAAGCGUUCACCUCGGGGCCCCUGUCAGAUUCUGGUGAAUCUGCGAAUUCUGCUGU [G25C C29G] the self-cleavage was 0.148.
Variant GGGGGCCACAGCAGAAGCGUUCACCUCGCGGCCACUGUCAGAUUCUGGUGAAUCUGCGAAUUCUGCUGU [G25C C34A] has a self-cleavage of 0.197.
GGGGGCCACAGCAGAAGCGUUCACCUCGCGGCCGCUGUCAGAUUCUGGUGAAUCUGCGAAUUCUGCUGU [G25C C34G] showed a self-cleavage of 0.14.
For GGGGGCCACAGCAGAAGCGUUCACCUCGCGGCCCCUGUCAGAUUCUGGUGAAUCUGCGACUUCUGCUGU [G25C A60C], the self-cleavage was 0.149.
GGGGGCCACAGCAGAAGCGUUCACCUCGCGGCCCCUGUCAGAUUCUGGUGAAUCUGCGAGUUCUGCUGU [G25C A60G] showed a self-cleavage of 0.207.
GGGGGCCACAGCAGAAGCGUUCACCUCGCGGCCCCUGUUAGAUUCUGGUGAAUCUGCGAAUUCUGCUGU [G25C C39U] gave a self-cleavage of 0.192.
With GGGGGCCACAGCAGAAGCGUUCACCUCGCGGCCCCUGUGAGAUUCUGGUGAAUCUGCGAAUUCUGCUGU [G25C C39G] the self-cleavage was 0.164.
In the case of GGGGGCCACAGCAGAAGCGUUCACCUCGCGGCCCCUGUAAGAUUCUGGUGAAUCUGCGAAUUCUGCUGU [G25C C39A], the self-cleavage is reported as 0.197.
For GGGGGCCACAGCAGAAGCGUUCACCUCGCGGCCCUUGUCAGAUUCUGGUGAAUCUGCGAAUUCUGCUGU [G25C C35U], the self-cleavage was 0.177.
For GGGGGCCACAGCAGAAGCGUUCACCUCGCGGCCCAUGUCAGAUUCUGGUGAAUCUGCGAAUUCUGCUGU [G25C C35A], the self-cleavage was 0.141.
For GGGGGCCACAGCAGAAGCGUUCACCUCGCGGCCCCUGUCAGGUUCUGGUGAAUCUGCGAAUUCUGCUGU [G25C A42G], the self-cleavage was 0.194.
Variant GGGGGCCACAGCAGAAGCGUUCACCUCGCGGCCCCUGUCAGUUUCUGGUGAAUCUGCGAAUUCUGCUGU [G25C A42U] has a self-cleavage of 0.203.
Variant GGGGGCCACAGCAGAAGCGUUCACCUCGCGGCCCCUGUCAGCUUCUGGUGAAUCUGCGAAUUCUGCUGU [G25C A42C] has a self-cleavage of 0.187.
For GGGGGCCACAGCAGAAGCGUUCACCUCGCGGCCCCUGUCAGAUUCUGGUGAUUCUGCGAAUUCUGCUGU [G25C A52U], the self-cleavage was 0.158.
GGGGGCCACAGCAGAAGCGUUCACCUCGCGGCCCCUGUCAGAUUCUGGUGAGUCUGCGAAUUCUGCUGU [G25C A52G] showed a self-cleavage of 0.174.
For GGGGGCCACAGCAGAAGCGUUCACCUCGCGGCCCCUGUCAGAUUCUGGUGACUCUGCGAAUUCUGCUGU [G25C A52C], the self-cleavage was 0.182.
For GGGGGCCACAGCAGAAGCGUUCACCUGGCGGCCCCUGUCAGAUUCUGGUGAAUCUGCGAAUUCUGCUGU [G25C C27G], the self-cleavage was 0.225.
GGGGGCCACAGCAGAAGCGUUCACCUUGCGGCCCCUGUCAGAUUCUGGUGAAUCUGCGAAUUCUGCUGU [G25C C27U] showed a self-cleavage of 0.172.
